Experimental data from US20230112123A1 (published 2023).

T1: human CD70 (human, UniProt P32970 1-193)
T1 chain: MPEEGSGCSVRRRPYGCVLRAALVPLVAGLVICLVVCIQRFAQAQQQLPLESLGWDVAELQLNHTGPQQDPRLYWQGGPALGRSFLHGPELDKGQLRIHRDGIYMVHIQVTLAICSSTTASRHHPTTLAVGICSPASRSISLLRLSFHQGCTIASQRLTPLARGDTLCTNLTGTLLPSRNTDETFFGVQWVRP


Target: T1, human CD70
Test: FACS blocking of CD27(ECD)-Fc binding; CHO-CD70 cells

IC50 [nM]	Binder
2.39	Cusatuzumab (antibody, V domains shown) VH: EVQLVESGGGLVQPGGSLRLSCAASGFTFSVYYMNWVRQAPGKGLEWVSDINNEGGTTYYADSVKGRFTISRDNSKNSLYLQMNSLRAEDTAVYYCARDAGYSNHVPIFDSWGQGTLVTVSS VL: QAVVTQEPSLTVSPGGTVTLTCGLKSGSVTSDNFPTWYQQTPGQAPRLLIYNTNTRHSGVPDRFSGSILGNKAALTITGAQADDEAEYFCALFISNPSVEFGGGTQLTVLG
2.04	IMM40H (antibody, V domains shown) VH: QVQLVQSGAEVKKPGASVKVSCKVSGYTFTDSALHWVRQAPGKGLEWMGVISTYDGDTDYNQKFKGRVTMTEDTSTDTAYMELSSLRSEDTAVYYCARRGYYDYDWFPYWGQGTLVTVSA VL: DIVLTQSPASLAVSPGQRATITCRASKSVSASGYSFLHWYQQKPGQPPKLLIYLASNLESGVPARFSGSGSGTDFTLTINPVEANDTANYYCQHSRELPPTFGGGTKVEIKR
